Patent publication US20240262926A1 (published 2024)

T1: recombinant monkey TfR (r monkey TfR: Sino Biological Inc.) (cynomolgus monkey (Macaca fascicularis), UniProt Q5RDH6 89-760 (Pongo abelii entry))
T1 construct: Bought product; also called r monkey TfR-ECD (Histag); cynomolgus monkey TfR; not shown: histidine tag attached to the N-terminus
T1 chain: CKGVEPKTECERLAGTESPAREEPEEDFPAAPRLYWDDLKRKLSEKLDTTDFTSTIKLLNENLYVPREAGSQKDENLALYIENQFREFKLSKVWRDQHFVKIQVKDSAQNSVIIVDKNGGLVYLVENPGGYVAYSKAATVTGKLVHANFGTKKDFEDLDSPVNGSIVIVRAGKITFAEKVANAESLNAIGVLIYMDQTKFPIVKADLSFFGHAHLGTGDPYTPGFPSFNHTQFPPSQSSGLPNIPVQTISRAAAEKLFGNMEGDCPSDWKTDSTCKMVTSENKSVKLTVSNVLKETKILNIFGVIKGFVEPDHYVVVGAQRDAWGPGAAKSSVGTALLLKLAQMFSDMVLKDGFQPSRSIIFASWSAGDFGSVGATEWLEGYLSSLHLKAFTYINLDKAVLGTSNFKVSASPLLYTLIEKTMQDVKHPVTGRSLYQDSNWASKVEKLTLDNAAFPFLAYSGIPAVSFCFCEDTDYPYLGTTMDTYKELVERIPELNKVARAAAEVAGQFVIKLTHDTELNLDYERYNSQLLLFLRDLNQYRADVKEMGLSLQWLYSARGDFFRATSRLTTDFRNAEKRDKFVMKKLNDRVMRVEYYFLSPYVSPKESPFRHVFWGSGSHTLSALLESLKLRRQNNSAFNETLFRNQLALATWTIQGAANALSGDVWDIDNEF


What was measured:
[1] = target: human TrkB (GenBank Acc. No. NP_001018074.1) expressed in CHO cells (human, UniProt Q16620 32-822); assay: cell-based or functional assay
Sequence of human TrkB (GenBank Acc. No. NP_001018074.1) expressed in CHO cells (Q16620 32-822): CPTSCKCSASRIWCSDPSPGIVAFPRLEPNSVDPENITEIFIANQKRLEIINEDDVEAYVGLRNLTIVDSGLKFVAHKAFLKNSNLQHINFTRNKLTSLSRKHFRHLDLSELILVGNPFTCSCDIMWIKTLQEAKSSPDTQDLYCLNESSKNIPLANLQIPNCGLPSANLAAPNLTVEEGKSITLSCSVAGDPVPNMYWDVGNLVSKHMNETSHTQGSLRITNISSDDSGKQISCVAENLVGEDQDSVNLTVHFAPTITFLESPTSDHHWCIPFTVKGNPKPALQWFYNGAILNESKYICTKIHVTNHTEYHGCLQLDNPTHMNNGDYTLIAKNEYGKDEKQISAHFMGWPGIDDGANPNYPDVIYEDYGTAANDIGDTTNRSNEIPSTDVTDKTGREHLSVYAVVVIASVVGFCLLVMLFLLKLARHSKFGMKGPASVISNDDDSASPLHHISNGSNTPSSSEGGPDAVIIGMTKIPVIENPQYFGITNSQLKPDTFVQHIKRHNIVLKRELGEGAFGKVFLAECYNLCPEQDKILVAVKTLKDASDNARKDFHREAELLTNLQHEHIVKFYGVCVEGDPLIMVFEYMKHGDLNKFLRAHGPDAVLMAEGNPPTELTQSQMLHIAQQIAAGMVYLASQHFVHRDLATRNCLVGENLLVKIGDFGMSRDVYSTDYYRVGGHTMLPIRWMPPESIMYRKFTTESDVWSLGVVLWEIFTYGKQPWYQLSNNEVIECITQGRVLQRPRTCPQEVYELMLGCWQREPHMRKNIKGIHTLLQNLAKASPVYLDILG

[2] = target: T2, recombinant human TfR (r human TfR: Sino Biological Inc.) (human, UniProt P02786 89-760); assay: ELISA, plate-coated recombinant TfR, detection with biotin-labeled anti-BDNF antibody and streptavidin-HRP
T2 construct: Bought product; also called r human TfR-ECD (Histag); hTfR; not shown: histidine tag attached to the N-terminus
Method: (§1) The affinity of the hBDNF-anti-hTfR antibody fusion protein to hTfR was measured using an ELISA method. The measurement by the ELISA method was generally carried out by the following method. As human TfR, recombinant human TfR (r human TfR: Sino Biological Inc.) having the amino acid sequence of the extracellular region of hTfR, ranging from the cysteine residue at the position 89th from the N-terminal side to the phenylalanine at the C-terminus in the amino acid sequence set forth as SEQ ID NO:1, to the N-terminus of which a histidine tag was added, was used. As monkey TfR, recombinant monkey TfR (r monkey TfR: Sino Biological Inc.) having the amino acid sequence of the extracellular region of cynomolgus monkey hTfR, ranging from the cysteine residue at the position 89th from the N-terminal side to the phenylalanine at the C-terminus in the amino acid sequence set forth as SEQ ID NO:2, to the N-terminus of which a histidine tag was added, was used. The measurement was carried out on the hBDNF-anti-hTfR antibodies 3, 4 and 6 among the hBDNF-humanized anti-hTfR antibody fusion proteins obtained in Example 17.
(§2) Recombinant human and monkey TfR (Sino Biological Inc.) were each diluted to 0.5 μg/mL, and the diluted solution was then added in an amount of 100 μL to each well of a 96-well plate (Nunc Inc), followed by leaving it to stand for 1 hour. […]

[3] = target: T1, recombinant monkey TfR (r monkey TfR: …); assay: as above
Method: as §1, §2

[4] = target: T2, recombinant human TfR (r human TfR: …); assay: BLI (Octet RED96), method of Example 7, His-tagged TfR ECD on Ni-NTA sensor
Method: (§3) Each of the antibodies (anti-hTfR antibody Nos. 1 to 14) purified above was subjected to 2-fold dilution steps with HBS-P+(10 mM HEPES containing 150 mM NaCl, 50 μM EDTA and 0.05% Surfactant P20) to prepare antibody solutions of 7 different concentrations, 0.78125 to 50 nM (0.117 to 7.5 μg/mL). These antibody solutions were used as the sample solutions. The r human and r monkey TfRs were respectively diluted with HBS-P+ to prepare 25 μg/mL solutions, which were used as r human TfR-ECD (Histag) solution and r monkey TfR-ECD (Histag) solution, respectively.
(§4) Each of the sample solutions prepared above by 2-fold dilution steps was added, 200 μL/well, to a 96-well plate, black (Greiner Bio-One Inc.). Each of the r human TfR-ECD (Histag) solution and the r monkey TfR-ECD (Histag) solutions prepared above was added, 200 μL/well, to predetermined wells. To respective wells for baseline, dissociation and washing were added HBS-P+, 200 μL/well. To wells for regeneration were added 10 mM Glycine-HCl, pH 1.7, 200 μL/well. To wells for activation was added 0.5 mM NiCl₂ solution, 200 μL/well. The plate and biosensor (Biosensor/Ni-NTA: ForteBio Inc., a division of Pall Corporation) were set in the prescribed positions of Octet RED96. […] The measurement was performed at 25 to 30° C.
(§5) The affinity of the humanized anti-hTfR antibodies obtained in Example 13 to human and monkey TfRs was measured by the method described in Example 7.

[5] = target: T1, recombinant monkey TfR (r monkey TfR: …); assay: as above
Method: as §3, §4, §5

[6] = target: T2, recombinant human TfR (r human TfR: …); assay: ELISA on plate-coated recombinant TfR ('the present measurement method' of Example 18-2)
[7] = target: T1, recombinant monkey TfR (r monkey TfR: …); assay: as above

| BDNF activity (TrkB agonistic EC50, nmol/L) [1] | EC50 [2] | EC50 [3] | Kd [4] | koff [4] | kon [4] | Kd [5] | koff [5] | kon [5] | EC50 [6] | EC50 [7] | Binder |
| --- | --- | --- | --- | --- | --- | --- | --- | --- | --- | --- | --- |
| 0.16 nmol/L | 0.63 nM | 2.3 nM |  |  |  |  |  |  |  |  | hBDNF-anti-hTfR antibody 6 (other, also called fusion protein of hBDNF and humanized anti-hTfR antibody Fab; product of pE-neo (BDNF-Fab HC-1) and pE-hygr (LC3)) heavy: HSDPARRGELSVCDSISEWVTAADKKTAVDMSGGTVTVLEKVPVSKGQLKQYFYETKCNPMGYTKEGCRGIDKRHWNSQCRTTQSYVRALTMDSKKRIGWRFIRIDTSCVCTLTIKRGRGSGGGGSGGGGSGGGGSGGGGSGGGGSEVQLVQSGAEVKKPGESLKISCKGSGYSFTNYWLGWVRQMPGKGLEWMGDIYPGGDYPTYSEKFKVQVTISADKSISTAYLQWSSLKASDTAMYYCARSGNYDEVAYWGQGTLVTVSSASTKGPSVFPLAPSSKSTSGGTAALGCLVKDYFPEPVTVSWNSGALTSGVHTFPAVLQSSGLYSLSSVVTVPSSSLGTQTYICNVNHKPSNTKVDKKVEPKSCDKTHT light: DIVMTQTPLSLSVTPGQPASISCRSSQSLVHSNGNTYLHWYLQKPGQSPQLLIYKVSNRFSGVPDRFSGSGSGTDFTLKISRVEAEDVGVYYCSQSTHVPWTFGQGTKVEIKRTVAAPSVFIFPPSDEQLKSGTASVVCLLNNFYPREAKVQWKVDNALQSGNSQESVTEQDSKDSTYSLSSTLTLSKADYEKHKVYACEVTHQGLSSPVTKSFNRGEC |
|  |  |  | < 0.001 nM | < 1e-07 s⁻¹ | 1.19e+06 M⁻¹ s⁻¹ | 1.12 nM | 0.000676 s⁻¹ | 603000 M⁻¹ s⁻¹ | 0.09 nM | 0.25 nM | humanized anti-hTfR antibody No. 3 (antibody, human IgG1, kappa, IgG1; expressed in CHO-K1, purified on Protein A) heavy: not shown light: DIVMTQTPLSLSVTPGQPASISCRSSQSLVHSNGNTYLHWYLQKPGQSPQLLIYKVSNRFSGVPDRFSGSGSGTDFTLKISRVEAEDVGVYYCSQSTHVPWTFGQGTKVEIKRTVAAPSVFIFPPSDEQLKSGTASVVCLLNNFYPREAKVQWKVDNALQSGNSQESVTEQDSKDSTYSLSSTLTLSKADYEKHKVYACEVTHQGLSSPVTKSFNRGEC |
